Experiments:
[1] = molecular target: T1, DJ-1, endogenous in SH-SY5Y cells (human (endogenous in SH-SY5Y)), Q99497; test: cross-linking; in situ, 0.2 mM DSG, 10 min, 4 °C, in PBS pH 7.4, harvested SH-SY5Y cells (untreated or carbachol) or cortical neuronal cultures (untreated or BDNF); quenched with 50 mM Tris-HCl; SDS-PAGE with DTT and immunoblot; details: remark: other sources report otherwise
T1 chain: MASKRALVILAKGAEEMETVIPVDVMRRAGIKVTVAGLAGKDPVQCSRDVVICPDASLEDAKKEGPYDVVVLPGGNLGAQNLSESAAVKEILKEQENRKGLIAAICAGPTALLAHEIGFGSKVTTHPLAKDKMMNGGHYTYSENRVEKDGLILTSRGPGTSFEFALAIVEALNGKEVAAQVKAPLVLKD

[2] = molecular target: the molecule itself; test: as above
[3] = molecular target: the molecule itself; test: cross-linking; in situ/ex vivo, 0.5 mM DSG, 30 min, 37 °C, PBS pH 7.4, ~0.5 mm slices of rat DG, CA or cortex (naive, HFS-LTP or BDNF-LTP); lysis in 1% Triton X-100; SDS-PAGE with DTT and immunoblot
[4] = molecular target: the molecule itself; test: cross-linking; DSG-crosslinked pooled rat DG (1, 2, 4 h post-HFS), then Arc immunoprecipitation (rabbit anti-Arc antibody or ALFA-H11 nanobody) and Arc immunoblot
[5] = molecular target: the molecule itself; test: cross-linking; thiol-cleavable DSP on rat CA tissue; non-reducing SDS-PAGE and immunoblot; crosslinks reversed by DTT
[6] = molecular target: the molecule itself; test: cross-linking + affinity purification with mass spectrometry; in situ, 0.1 mM DSG, 10 min, 4 °C, mTq2-Arc transfected HEK293FT cells; immunoblot, Arc immunoprecipitation and LC-MS/MS of gel-excised bands (~75, 150, 250, >250 kDa)
[7] = molecular target: the molecule itself; test: SDS-PAGE and immunoblot without cross-linker; non-crosslinked (DMSO only) cells or tissue, boiled in Laemmli buffer with DTT; species that resist SDS

B1: DJ-1, endogenous in SH-SY5Y cells, Q99497 1-189 (natural protein)
chain: T1 chain
B1 was tested, and the stoichiometry N [1] was 2.

B2: Activity-regulated cytoskeleton-associated protein (Arc), endogenous in human SH-SY5Y neuroblastoma cells (natural protein, human (endogenous in SH-SY5Y), UniProt Q7LC44 1-396, looked up)
chain: MELDHRTSGGLHAYPGPRGGQVAKPNVILQIGKCRAEMLEHVRRTHRHLLAEVSKQVERELKGLHRSVGKLESNLDGYVPTSDSQRWKKSIKACLCRCQETIANLERWVKREMHVWREVFYRLERWADRLESTGGKYPVGSESARHTVSVGVGGPESYCHEADGYDYTVSPYAITPPPAAGELPGQEPAEAQQYQPWVPGEDGQPSPGVDTQIFEDPREFLSHLEEYLRQVGGSEEYWLSQIQNHMNGPAKKWWEFKQGSVKNWVEFKKEFLQYSEGTLSREAIQRELDLPQKQGEPLDQFLWRKRDLYQTLYVDADEEEIIQYVVGTLQPKLKRFLRHPLPKTLEQLIQRGMEVQDDLEQAAEPAGPHLPVEDEAETLTPAPNSESVASDRTQPE
notes: Arc (Arg3.1), endogenous in human SH-SY5Y neuroblastoma cells; monomer at ~50 kDa on SDS-PAGE; also called Arg3.1; endogenous Arc; source: endogenous, SH-SY5Y cells (induced with 100 uM carbachol), in cells / lysate
In the case of B2, the “stoichiometry N” value [2] is reported as 2.

B3: Arc, endogenous in rat brain tissue (dentate gyrus, hippocampal CA, cortex) (natural protein, rat (endogenous in rat brain tissue), UniProt Q63053 1-396, looked up)
chain: MELDHMTTGGLHAYPAPRGGPAAKPNVILQIGKCRAEMLEHVRRTHRHLLTEVSKQVERELKGLHRSVGKLENNLDGYVPTGDSQRWKKSIKACLCRCQETIANLERWVKREMHVWREVFYRLERWADRLESMGGKYPVGSEPARHTVSVGVGGPEPYCQEADGYDYTVSPYAITPPPAAGELPEQESVGAQQYQSWVPGEDGQPSPGVDTQIFEDPREFLSHLEEYLRQVGGSEEYWLSQIQNHMNGPAKKWWEFKQGSVKNWVEFKKEFLQYSEGTLSREAIQRELDLPQKQGEPLDQFLWRKRDLYQTLYVDAEEEEIIQYVVGTLQPKFKRFLRHPLPKTLEQLIQRGMEVQDGLEQAAEPSVTPLPTEDETEALTPALTSESVASDRTQPE
notes: Arc (Arg3.1), endogenous in adult Sprague-Dawley rat brain tissue; monomer at ~55 kDa on SDS-PAGE; also called Arg3.1; endogenous Arc; source: endogenous, rat brain tissue (DG, CA, cortex), in tissue / lysate
B3 was tested, and the “ratio of dimer:monomer in the DSG lane (BDNF-LTP, 2 h)” value [3] was 0.56, the “ratio of dimer:monomer in the DSG lane (HFS-LTP, 2 h)” value [3] was 0.4 and the “stoichiometry N” value [4] was 2.

B4: DJ-1, endogenous in rat brain tissue (natural protein, rat (endogenous in rat brain tissue), UniProt O88767 1-189, looked up)
chain: MASKRALVILAKGAEEMETVIPVDIMRRAGIKVTVAGLAGKDPVQCSRDVVICPDTSLEEAKTQGPYDVVVLPGGNLGAQNLSESALVKEILKEQENRKGLIAAICAGPTALLAHEVGFGCKVTSHPLAKDKMMNGSHYSYSESRVEKDGLILTSRGPGTSFEFALAIVEALSGKDMANQVKAPLVLKD
notes: DJ-1, endogenous in rat DG, CA and cortical tissue; also called DJ-I; source: endogenous, rat brain tissue (DG, CA, cortex), in tissue / lysate
For B4, the “stoichiometry N” value [5] was 2.

B5: Arc N-terminally fused to monomeric Turquoise 2 (mTq2-Arc) (natural protein, UniProt Q63053 1-396, looked up)
chain: B3 chain
notes: Arc; fusion monomer at ~75 kDa on SDS-PAGE; The crosslinking in HEK293FT cells follows Eriksen et al. (2021); the construct may be described there; also called ectopic Arc; source: HEK293FT, transfected (CMV promoter), in cells / lysate; not shown: monomeric Turquoise 2 (mTq2), N-terminal, kept
B5 was tested, and the “stoichiometry N” value [6] was 2.

B6: rArc-StrepII-HA, stably expressed in SH-SY5Y cells (natural protein, UniProt Q63053 1-396, looked up)
chain: B3 chain
notes: Arc printed as rArc in the cassette CMV::rArc-StrepII-HA; the species is not spelt out; monomer at ~60 kDa on SDS-PAGE; also called tagged-Arc; exogenous Arc
With B6 the “stoichiometry N” value [7] was 2.

B7: Arc, endogenous in primary cortical neuronal cultures (natural protein, UniProt Q63053 1-396, looked up)
chain: B3 chain
notes: Arc (Arg3.1), endogenous in primary cortical neurons; also called Arg3.1; source: endogenous, primary cortical neuronal cultures (BDNF 50 ng/mL, 2 h), in cells / lysate
With B7 the “stoichiometry N” value [2] was 2.

From article PMC10289200, “Detection of Arc/Arg3.1 oligomers in rat brain: constitutive and synaptic activity-evoked dimer expression in vivo” (Frontiers in Molecular Neuroscience, 2023)
